# B1: Focal adhesion kinase 1 (Homo sapiens), Q05397 (parent)
# chain: MAAAYLDPNLNHTPNSSTKTHLGTGMERSPGAMERVLKVFHYFESNSEPTTWASIIRHGDATDVRGIIQKIVDSHKVKHVACYGFRLSHLRSEEVHWLHVDMGVSSVREKYELAHPPEEWKYELRIRYLPKGFLNQFTEDKPTLNFFYQQVKSDYMLEIADQVDQEIALKLGCLEIRRSYWEMRGNALEKKSNYEVLEKDVGLKRFFPKSLLDSVKAKTLRKLIQQTFRQFANLNREESILKFFEILSPVYRFDKECFKCALGSSWIISVELAIGPEEGISYLTDKGCNPTHLADFTQVQTIQYSNSEDKDRKGMLQLKIAGAPEPLTVTAPSLTIAENMADLIDGYCRLVNGTSQSFIIRPQKEGERALPSIPKLANSEKQGMRTHAVSVSETDDYAEIIDEEDTYTMPSTRDYEIQRERIELGRCIGEGQFGDVHQGIYMSPENPALAVAIKTCKNCTSDSVREKFLQEALTMRQFDHPHIVKLIGVITENPVWIIMELCTLGELRSFLQVRKYSLDLASLILYAYQLSTALAYLESKRFVHRDIAARNVLVSSNDCVKLGDFGLSRYMEDSTYYKASKGKLPIKWMAPESINFRRFTSASDVWMFGVCMWEILMHGVKPFQGVKNNDVIGRIENGERLPMPPNCPPTLYSLMTKCWAYDPSRRPRFTELKAQLSTILEEEKAQQEERMRMESRRQATVSWDSGGSDEAPPKPSRPGYPSPRSSEGFYPSPQHMVQTNHYQVSGYPGSHGITAMAGSIYPGQASLLDQTDSWNHRPQEIAMWQPNVEDSTVLDLRGIGQVLPTHLMEERLIRQQQEMEEDQRWLEKEERFLKPDVRLSRGSIDREDGSLQGPIGNQHIYQPVGKPDPAAPPKKPPRPGAPGHLGSLASLSSPADSYNEGVKLQPQEISPPPTANLDRSNDKVYENVTGLVKAVIEMSSKIQPAPPEEYVPMVKEVGLALRTLLATVDETIPLLPASTHREIEMAQKLLNSDLGELINKMKLAQQYVMTSLQQEYKKQMLTAAHALAVDAKNLLDVIDQARLKMLGQTRPH
# Variants of: B1
# Conditions: with tln1_chick TLN1, P54939
# Chain of tln1_chick TLN1, P54939 (P54939 whole entry): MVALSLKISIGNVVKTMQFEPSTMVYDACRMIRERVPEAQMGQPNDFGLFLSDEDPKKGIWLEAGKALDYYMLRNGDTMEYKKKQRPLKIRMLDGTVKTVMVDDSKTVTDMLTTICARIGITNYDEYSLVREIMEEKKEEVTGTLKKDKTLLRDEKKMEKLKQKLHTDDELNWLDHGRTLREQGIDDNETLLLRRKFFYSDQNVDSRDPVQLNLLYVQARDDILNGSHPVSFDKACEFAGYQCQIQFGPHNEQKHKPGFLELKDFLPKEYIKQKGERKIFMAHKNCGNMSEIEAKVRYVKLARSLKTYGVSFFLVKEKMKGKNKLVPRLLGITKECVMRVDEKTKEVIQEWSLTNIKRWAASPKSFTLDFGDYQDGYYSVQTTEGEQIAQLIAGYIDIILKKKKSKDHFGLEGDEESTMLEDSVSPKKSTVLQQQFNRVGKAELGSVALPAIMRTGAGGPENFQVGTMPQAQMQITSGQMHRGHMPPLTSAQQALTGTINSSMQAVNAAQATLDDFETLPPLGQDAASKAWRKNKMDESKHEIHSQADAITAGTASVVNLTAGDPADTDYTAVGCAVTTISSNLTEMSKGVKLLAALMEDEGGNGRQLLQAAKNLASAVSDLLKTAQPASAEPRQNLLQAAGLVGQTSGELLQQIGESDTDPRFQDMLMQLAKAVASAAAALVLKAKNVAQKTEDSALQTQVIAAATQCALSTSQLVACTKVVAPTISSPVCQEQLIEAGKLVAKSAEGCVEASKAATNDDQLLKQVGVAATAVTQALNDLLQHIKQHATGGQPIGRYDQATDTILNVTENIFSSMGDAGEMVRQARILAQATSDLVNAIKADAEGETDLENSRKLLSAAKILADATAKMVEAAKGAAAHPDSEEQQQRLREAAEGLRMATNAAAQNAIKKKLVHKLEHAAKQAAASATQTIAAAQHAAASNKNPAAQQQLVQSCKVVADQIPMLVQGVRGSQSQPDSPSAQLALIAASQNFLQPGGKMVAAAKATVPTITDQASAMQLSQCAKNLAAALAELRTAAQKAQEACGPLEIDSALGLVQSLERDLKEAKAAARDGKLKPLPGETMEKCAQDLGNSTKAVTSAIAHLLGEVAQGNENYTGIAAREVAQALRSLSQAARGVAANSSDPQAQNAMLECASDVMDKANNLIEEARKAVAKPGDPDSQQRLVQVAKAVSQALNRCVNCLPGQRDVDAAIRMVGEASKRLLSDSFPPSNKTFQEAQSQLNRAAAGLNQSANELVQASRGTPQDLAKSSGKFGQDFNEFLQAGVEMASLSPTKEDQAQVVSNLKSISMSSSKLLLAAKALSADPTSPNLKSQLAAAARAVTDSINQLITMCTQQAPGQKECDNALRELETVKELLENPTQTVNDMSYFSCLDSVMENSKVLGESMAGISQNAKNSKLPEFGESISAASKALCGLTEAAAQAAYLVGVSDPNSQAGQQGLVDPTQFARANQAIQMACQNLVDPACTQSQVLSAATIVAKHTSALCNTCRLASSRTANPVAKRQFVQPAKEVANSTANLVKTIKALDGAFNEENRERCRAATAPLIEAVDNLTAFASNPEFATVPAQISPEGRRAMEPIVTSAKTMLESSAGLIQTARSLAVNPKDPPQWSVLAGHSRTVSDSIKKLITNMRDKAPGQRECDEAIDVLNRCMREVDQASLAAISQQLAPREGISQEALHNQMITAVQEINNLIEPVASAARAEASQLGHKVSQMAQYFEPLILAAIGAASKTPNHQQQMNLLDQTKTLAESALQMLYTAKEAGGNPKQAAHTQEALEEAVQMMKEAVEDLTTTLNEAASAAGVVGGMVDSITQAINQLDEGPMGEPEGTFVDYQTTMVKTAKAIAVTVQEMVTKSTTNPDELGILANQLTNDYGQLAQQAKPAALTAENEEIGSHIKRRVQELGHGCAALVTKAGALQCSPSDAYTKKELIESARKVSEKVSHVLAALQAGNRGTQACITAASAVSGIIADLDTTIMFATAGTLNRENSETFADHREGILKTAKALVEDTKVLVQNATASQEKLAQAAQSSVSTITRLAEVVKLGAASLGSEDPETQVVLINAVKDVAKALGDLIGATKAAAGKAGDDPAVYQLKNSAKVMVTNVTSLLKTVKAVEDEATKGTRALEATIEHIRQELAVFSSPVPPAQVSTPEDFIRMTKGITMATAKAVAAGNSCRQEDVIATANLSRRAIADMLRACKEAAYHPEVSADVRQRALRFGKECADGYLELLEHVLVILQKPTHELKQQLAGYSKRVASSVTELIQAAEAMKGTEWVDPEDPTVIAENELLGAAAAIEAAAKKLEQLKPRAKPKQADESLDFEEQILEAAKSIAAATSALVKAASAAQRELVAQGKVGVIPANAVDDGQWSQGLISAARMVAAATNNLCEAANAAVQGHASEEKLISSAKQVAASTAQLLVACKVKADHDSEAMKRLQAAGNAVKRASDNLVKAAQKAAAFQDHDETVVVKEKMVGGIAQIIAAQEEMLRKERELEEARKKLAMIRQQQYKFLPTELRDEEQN
row,Variant,effect of a mutation on the interaction
1,E1015A,disrupting interaction

# From IntAct's records for PubMed 22270917
